Assay results reported in PMC7138851, “Quantitative assessment of the determinant structural differences between redox-active and inactive glutaredoxins” (Nature Communications, 2020).
Values joined by “and” are separate entries in the source; they are usually repeats but may differ in a detail not shown here. Identical values can stand only once.

Assays:
HsGrx5 = biological target: T1, HsGrx5 (Homo sapiens, UniProt Q86SX6, C122S); assay: UV/vis absorbance of purified protein; assay type: binding; details: as purified from E. coli; cluster type not determined here
T1 construct: gene GLRX5; E. coli XL1-Blue, pQE30; N-terminal MRGS(H)6 tag; C122S in all constructs
T1 sequence (Q86SX6 32-157 C122S): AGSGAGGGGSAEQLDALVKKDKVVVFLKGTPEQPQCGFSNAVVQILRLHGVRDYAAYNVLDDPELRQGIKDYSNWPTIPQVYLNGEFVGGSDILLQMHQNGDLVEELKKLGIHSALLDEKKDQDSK

Cys108 [1] = biological target: Cys108 (UniProt position 108, FSETGCPYSKK); assay: chemical modification; details: 23 °C, 100 mM KCl in a constant-ionic-strength three-buffer system (value not stated), 50 mM potassium acetate, 50 mM MES, 100 mM Tris, Freshly reduced (NaBH4) free enzyme, no glutathione bound
ScGrx7 = biological target: T2, ScGrx7 (Saccharomyces cerevisiae, UniProt P38068); parameters: Disulfide oxidoreductase assay, steady-state kinetics, coupled NADPH consumption at 340 nm, pH 8.0, 25 °C; details: apparent Km at highest fixed GSH concentration; substrate; read-out: Km app(HEDS)
T2 construct: gene GRX7; E. coli XL1-Blue, pQE30; N-terminal MRGS(H)6 tag
T2 sequence (P38068 33-203): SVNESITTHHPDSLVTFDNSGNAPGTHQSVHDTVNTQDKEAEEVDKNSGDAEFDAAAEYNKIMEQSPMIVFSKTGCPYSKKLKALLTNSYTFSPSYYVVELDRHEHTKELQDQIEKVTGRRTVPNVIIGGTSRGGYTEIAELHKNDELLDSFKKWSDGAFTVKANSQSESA
Method: Steady-state kinetics of wild-type and mutant ScGrx7 and HsGrx5^C122S in the GSSCys and [compound left out] assays were determined spectrophotometrically by monitoring the consumption of NADPH at 340 nm and 25 °C using a thermostated Jasco V-650 UV/vis spectrophotometer[11],[19],[25]. Fresh stock solutions of NADPH, GSH, GR, and GSSCys or [compound left out] were prepared in assay buffer containing 0.1 M Tris/HCl, 1 mM EDTA, pH 8.0 before each experiment. Both assays were performed with 0.1 mM NADPH and 1 U/ml ScGR. […] NADPH, GSH, and GR were mixed in assay buffer before Grx was added and a baseline was recorded for 30 s. […] The absorbance of a reference cuvette containing all components but no Grx was measured in parallel and subtracted from the obtained Grx activity. […] NADPH, GSH, and [compound left out] were preincubated in assay buffer for 2 min before GR was added and a baseline was recorded for 30 s. […] Kinetic data were analyzed in Excel and SigmaPlot 13 by nonlinear and linear regression according to Michaelis–Menten, Lineweaver–Burk, Eadie–Hofstee, and Hanes theory[11],[19],[25].

Cys108 [2] = biological target: Cys108 (UniProt position 108, FSKTGCPYSKK); assay: chemical modification; details: 23 °C, 100 mM KCl in a constant-ionic-strength three-buffer system (value not stated), 50 mM potassium acetate, 50 mM MES, 100 mM Tris, Freshly reduced (NaBH4) free enzyme, no glutathione bound
Cys108 [3] = biological target: Cys108 (UniProt position 108, FSATGCPYSKK); assay: chemical modification; details: 23 °C (alkylation step), 25 °C (HEDS activity read-out), 100 mM KCl in a constant-ionic-strength three-buffer system, the ionic strength value is not stated, 50 mM potassium acetate, 50 mM MES, 100 mM Tris, Free enzyme, freshly reduced with a 20-fold molar excess of NaBH4, 6 µM protein
[4] = substrate: N[C@@H](CCC(=O)N[C@@H](CSSC[C@H](N)C(=O)O)C(=O)NCC(=O)O)C(=O)O; assay: purified protein, by the assay type; parameters: GSSCys oxidoreductase assay, GR-coupled NADPH consumption at 340 nm, apparent Km from Hanes plots; details: pH 8.0; 25.0 °C
Method: (§1) Steady-state kinetics of wild-type and mutant ScGrx7 and HsGrx5^C122S in the GSSCys and [compound left out] assays were determined spectrophotometrically by monitoring the consumption of NADPH at 340 nm and 25 °C using a thermostated Jasco V-650 UV/vis spectrophotometer[11],[19],[25]. Fresh stock solutions of NADPH, GSH, GR, and GSSCys or [compound left out] were prepared in assay buffer containing 0.1 M Tris/HCl, 1 mM EDTA, pH 8.0 before each experiment. Both assays were performed with 0.1 mM NADPH and 1 U/ml ScGR. The following final protein concentrations were used for Y110F/H/A (5–150 nM), D144A/K (10 nM), E147A/K (10 nM), R153A/E (25–50 nM), ScGrx7^WP (20 nM), ScGrx7^loop (up to 1.4 µM), ScGrx7^WP+loop (up 2.6 µM), HsGrx5^C122S (up to 15 µM), HsGrx5^RR (up to 12 µM), HsGrx5^loop (up to 1.6 µM), and HsGrx5^RR+loop (up to 4.0 µM). For the GSSCys assays, GSH was varied between 50 µM and 1.5 mM at fixed GSSCys concentrations (25, 50, 100, and 150 µM). NADPH, GSH, and GR were mixed in assay buffer before Grx was added and a baseline was recorded for 30 s. All GSSCys assays were started by the addition of GSSCys. The absorbance of a reference cuvette containing all components but no Grx was measured in parallel and subtracted from the obtained Grx activity. For the [compound left out] assays, GSH was varied between 100 µM and 2.0 mM at fixed concentrations of [compound left out] (0.18, 0.37, 0.55, and 0.74 mM). NADPH, GSH, and [compound left out] were preincubated in assay buffer for 2 min before GR was added and a baseline was recorded for 30 s. All [compound left out] assays were started by the addition of enzyme. Kinetic data were analyzed in Excel and SigmaPlot 13 by nonlinear and linear regression according to Michaelis–Menten, Lineweaver–Burk, Eadie–Hofstee, and Hanes theory[11],[19],[25]. 29 Supplementary Figure 15 Supplementary Figure 15 | GSSCys assay steady-state kinetics of HsGrx5loop and HsGrx5RR+loop . […] The activities of HsGrx5 and HsGrx5RR were similar to the NADPH consumption of negative controls without enzyme and could not be analyzed.

[5] = substrate: N[C@@H](CCC(=O)N[C@@H](CS)C(=O)NCC(=O)O)C(=O)O; assay: purified protein, by the assay type; parameters: GSSCys oxidoreductase assay, GR-coupled NADPH consumption at 340 nm, apparent Km from Hanes plots; details: pH 8.0; 25.0 °C
Method: as §1

With `[S]1[Fe][S][Fe]1` [iron–sulfur cluster] as the molecule, how does the “UV/vis absorbance of purified protein” value (HsGrx5) read?
The value was “Freshly purified recombinant wild-type HsGrx5 contained an iron–sulfur cluster”.

How did the pKa (Cys108 [1]) turn out when “Glutaredoxin 7 (ScGrx7) K105E (Saccharomyces cerevisiae; K105E)” was run?
The pKa was 5.0 ± 0.1.

`OCCSSCCO` [HEDS] was tested. Which Km (ScGrx7) did it give?
Its Km is 820 ± 190 µM.

With “Glutaredoxin 7 (ScGrx7), wild type (Saccharomyces cerevisiae)” as the molecule, how does the pKa (Cys108 [2]) read?
The pKa was 4.3 ± 0.1 and 4.48.

With “Glutaredoxin 7 (ScGrx7) K105A (Saccharomyces cerevisiae; K105A)” as the molecule, how does the pKa (Cys108 [3]) read?
The pKa was 4.4 ± 0.1.

B1: HsGrx5 (Homo sapiens; C122S/DEL60-64/P65T/Q66G) (protein)
chain: AGSGAGGGGSAEQLDALVKKDKVVVFLKTGCGFSNAVVQILRLHGVRDYAAYNVLDDPELRQGIKDYSNWPTIPQVYLNGEFVGGSDILLQMHQNGDLVEELKKLGIHSALLDEKKDQDSK
notes: E. coli XL1-Blue, pQE30; N-terminal MRGS(H)6 tag; C122S in all constructs
With B1 as the molecule, how does the kcat/Km [4] read?
The kcat/Km was 1500 M⁻¹ s⁻¹ and 1600 M⁻¹ s⁻¹.

What about the kcat [5] of the same molecule?
The kcat was 0.18 s⁻¹ and 0.27 s⁻¹.

And the kcat/Km [5]?
Its kcat/Km is 3900 M⁻¹ s⁻¹ and 4800 M⁻¹ s⁻¹.
